# What was measured:
# PpYLKTK (pY705 Stat3) = target: T1, PpYLKTK (pY705 Stat3) (Homo sapiens, UniProt P40763); experiment: SPR binding to Stat3-derived pTyr705 peptide PpYLKTK; settings: immobilized on sensor chip, PpYLKTK as analyte
# T1 construct: the Stat3-derived pTyr705 peptide, PpYLKTK
# Procedure: (§1) Association and dissociation measurements were taken and the affinities were determined using Qdat software.
# (§2) Surface plasmon resonance analysis. […] Various concentrations of pTyr peptides (analyte) in running buffer (1×PBS, 0.5% DMSO) were passed over the sensor chip to produce response signals. The response signals were referenced by subtracting the response generated by passing across a surface without the analytes. The association and dissociation rate constants were calculated using the Qdat software. The ratio of the association and dissociation rate constants was determined as the affinity (KD).
# PEpYINQS (pY1068EGFR) = target: T2, PEpYINQS (pY1068EGFR) (Homo sapiens, UniProt P00533); experiment: SPR binding to EGFR pY1068 peptide PEpYINQS; settings: immobilized on sensor chip, PEpYINQS as analyte
# T2 construct: the pY1068 of EGFR, PEpYINQS
# Procedure: as §1, §2
# PVpYHNQP (pY1086EGFR) = target: T3, PVpYHNQP (pY1086EGFR) (Homo sapiens, UniProt P00533); experiment: SPR binding to EGFR pY1086 peptide PVpYHNQP; settings: immobilized on sensor chip, PVpYHNQP as analyte
# T3 construct: the pY1086 peptide of EGFR, PVpYHNQP
# Procedure: as §1, §2
# GpYIKTE (pY701Stat1) = target: T4, GpYIKTE (pY701Stat1) (Homo sapiens, UniProt P42224); experiment: SPR binding to Stat1 pY701 peptide GpYIKTE; settings: immobilized on sensor chip, GpYIKTE as analyte
# T4 construct: the Stat1 pY701 peptide, GpYIKTE
# Procedure: as §1, §2
# GpYVKPQ (pY694Stat5) = target: T5, GpYVKPQ (pY694Stat5) (Homo sapiens, UniProt P42229); experiment: SPR binding to Stat5 pTyr peptide GpYVKPQ; settings: immobilized on sensor chip, GpYVKPQ as analyte
# T5 construct: the pTyr peptide of Stat5, GpYVKPQ
# Procedure: as §1, §2
# GpYLPQTV (IL-6R/gp130) = GpYLPQTV (IL-6R/gp130) (Homo sapiens, UniProt P40189, S904G); settings: SPR; SPI, Stat3 SH2 domain or Stat3 immobilized on sensor chip, GpYLPQTV as analyte
# Procedure: as §1, §2
Substance,Kd (PpYLKTK (pY705 Stat3)) [µM],Kd (PEpYINQS (pY1068EGFR)) [µM],Kd (PVpYHNQP (pY1086EGFR)) [µM],Kd (GpYIKTE (pY701Stat1)) [µM],Kd (GpYVKPQ (pY694Stat5)) [µM],Kd (GpYLPQTV (IL-6R/gp130)) [µM]
"Stat3 SH2 domain: Purified His-tagged Stat3 SH2 domain, recombinant protein expressed in BL21(DE3) cells (FISKERERAILSTKPPGTFLLRFSESSK)",1.6,0.4,2.6,6.6,5200,0.03
"full-length Stat3: Purified His-tagged Stat3 protein, recombinant, expressed in BL21(DE3) cells",0.9,,,4.4,1200,0.02
